For four substances, Kd and stoichiometry N results are on record in paper PMC6914384.

Assay [1] deals with p300 BRP module (bromodomain-RING-PHD), residues 1048-1282 (UniProt Q09472). The assay is described as follows: ITC. Background: Isothermal titration calorimetry measures the heat released or taken up as one component is titrated into another.
The target of assay [2] is pIRF3 (IRF3 1-427 phosphorylated in vitro by TBK1) (UniProt Q14653). Put plainly: SEC. On the technique in general: Size exclusion chromatography separates by hydrodynamic size, large species first.
The target of assay [3] is pSTAT1ΔN (136-748), Tyr701-phosphorylated (UniProt P42224). The assay is described as follows: SEC.
In assay [4] the target is pSTAT1ΔNC (136-713), Tyr701-phosphorylated (UniProt P42224). The assay is described as follows: SEC.

Chain of p300 BRP module (bromodomain-RING-PHD), residues 1048-1282 (Q09472 1048-1282): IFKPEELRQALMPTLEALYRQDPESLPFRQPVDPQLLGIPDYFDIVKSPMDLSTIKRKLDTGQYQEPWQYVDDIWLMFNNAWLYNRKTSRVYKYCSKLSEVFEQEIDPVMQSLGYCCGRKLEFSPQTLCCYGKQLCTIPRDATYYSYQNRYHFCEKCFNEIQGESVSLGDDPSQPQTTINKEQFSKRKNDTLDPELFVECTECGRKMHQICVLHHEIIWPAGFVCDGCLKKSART

H4 K8acK12ac (4-24) peptide: in assay [1], the Kd amounted to 90 µM and the stoichiometry N turned out to be 1.01.
“pIRF3 (IRF3 1-427 phosphorylated in vitro by TBK1) (from UniProt Q14653 1-427) (natural protein)” registered a stoichiometry N in assay [2] of 2.
The substance “pSTAT1ΔN (136-748), Tyr701-phosphorylated (from UniProt P42224 136-748) (domain or fragment)” yielded a stoichiometry N in assay [3] of 2.
Substance “pSTAT1ΔNC (136-713), Tyr701-phosphorylated (from UniProt P42224 136-713) (domain or fragment)” came in with a stoichiometry N in assay [4] of 2.

As usually defined, the Kd is the equilibrium constant for the complex coming apart. As a reminder, the stoichiometry N is the number of molecules, sites or subunits per partner or assembly.
